Laboratory results published in patent publication US20240219403A1, “METHODS FOR INHIBITING KRAS ONCOPROTEIN THROUGH ENHANCED GTPASE ACTIVITY” (Memorial Sloan-Kettering Cancer Center, priority 2021, published 2024).

Molecular target: T1, KRAS^G12C (Homo sapiens, UniProt P01116, G12C)
T1 construct: endogenous in cells; host or cells: H358, H2122, H2030, SW1573 (KRAS G12C-mutant lung cancer lines, ATCC)
Assay: GTPase assays of purified GTP-loaded KRAS^G12C incubated with GAP proteins (γ-phosphate, α-phosphate, continuous phosphate release)
Format: biochemical
Settings: purified proteins
Description: GTP[γ^32P] hydrolysis assay. KRAS proteins (0.5 μg) were reacted with 0.04 μM GTP[γ^32P] (6000 Ci/mmol; PerkinElmer Life Sciences) in 100 μL loading buffer (50 mM HEPES, pH 7.5, 50 mM NaCl, 1 mM DTT, 0.1 mM EGTA, 10 mM EDTA, and 1 mg/mL BSA) for 10 min at 30° C. (5, 40). Loading reactions were stopped by placing on ice and adding MgCl2 to a final concentration of 20 mM. The GTPase assays were performed at 30° C. in 100 μL mixtures containing 20 nM of loaded KRAS and either hydrolysis buffer (25 mM HEPES pH 7.5, 50 mM NaCl, 1 mM DTT, 1 mM MgCl2 and 1 mg/mL BSA) alone, or in combination with WCE or purified RGS3 (0.08-0.4 μg/μL). Equimolar comparisons of NF1, RASA1 and RGS3 were carried out using the continuous hydrolysis assay (see below). Reactions were stopped at the indicated time by filtering through 0.45-μm nitrocellulose membrane filters. The filters were washed 3 times with 0.2 mL of ice-cold hydrolysis buffer, air dried, and processed by autoradiography. Reaction rates were determined by fitting an exponential curve to the data, which was normalized to the baseline value. For the determination of protein stability, the hydrolysis reactions were stopped by boiling at 100° C. for 10 min in Laemmli buffer. The samples were then subjected to SDS-PAGE followed by Coomasie staining (CBB) or immunoblotting with a His-specific antibody.
GTP[α^32P] hydrolysis assay. KRAS proteins were loaded with GTP[α^32P] (3000 Ci/mmol; PerkinElmer Life Sciences) and subjected to the hydrolysis reaction as indicated above. Upon completion of the hydrolysis reaction and immobilization of KRAS-nucleotide complexes on nitrocellulose membranes, the nucleotides were eluted by incubating with elution buffer (50 mM HEPES pH 7.5, 50 mM NaCl, 1 mM DTT, 0.1 mM EGTA, 0.1% SDS, 10 mM EDTA, 1 mM GTP and 1 mM GDP) for 3 min at 85° C. […]
Continuous hydrolysis assay (two-step detection of inorganic phosphate). […] The reaction was monitored by reading the absorbance at 360 nm every 10 to 20 s for ˜16-60 min at room temperature. […]

Molecule | effect on GTP-hydrolysis by KRAS^G12C
RGS4: regulator of G protein signaling 4, RGS family member (protein) MCKGLAGLPASCLRSAKDMKHRLGFLLQKSDSCEHNSSHNKKDKVVICQRVSQEEVKKWAESLENLISHECGLAAFKAFLKSEYSEENIDFWISCEEYKKIKSPSKLSPKAKKIYNEFISVQATKEVNLDSCTREETSRNMLEPTITCFDEAQKKIFNLMEKDSYRRFLKSRFYLDLVNPSSCGAEKQKGAKSSADCASLVPQCA | enhance the KRAS GTPase activity
RASA1: canonical RAS-GAP (protein) MEKIMPEEEYSEFKELILQKELHVVYALSHVCGQDRTLLASILLRIFLHEKLESLLLCTLNDREISMEDEATTLFRATTLASTLMEQYMKATATQFVHHALKDSILKIMESKQSCELSPSKLEKNEDVNTNLTHLLNILSELVEKIFMASEILPPTLRYIYGCLQKSVQHKWPTNTTMRTRVVSGFVFLRLICPAILNPRMFNIISDSPSPIAARTLILVAKSVQNLANLVEFGAKEPYMEGVNPFIKSNKHRMIMFLDELGNVPELPDTTEHSRTDLSRDLAALHEICVAHSDELRTLSNERGAQQHVLKKLLAITELLQQKQNQYTKTNDVR | no measurable effect
NF1: canonical RAS-GAP; recombinant NF1 GAP related domain (1198-1530aa) (protein, left off: small tags and cut ends) ETVLADRFERLVELVTMMGDQGELPIAMALANVVPCSQWDELARVLVTLFDSRHLLYQLLWNMFSKEVELADSMQTLFRGNSLASKIMTFCFKVYGATYLQKLLDPLLRIVITSSDWQHVSFEVDPTRLEPSESLEENQRNLLQMTEKFFHAIISSSSEFPPQLRSVCHCLYQATCHSLLNKATVKEKKENKKSVVSQRFPQNSIGAVGSAMFLRFINPAIVSPYEAGILDKKPPPRIERGLKLMSKILQSIANHVLFTKEEHMRPFNDFVKSNFDAARRFFLDIASDCPTSDAVNHSLSFISDGNVLALHRLLWNNQEKIGQYLSSNRDHKA | some activity
